Measurements reported in US20090297470.

Assays:
[1] = target: recombinant SDF-1α (1-68), full length, 7.97 kDa
Diprotin A (Ile-Pro-Ile) = target: T1, Diprotin A (Ile-Pro-Ile)
T1 chain: IPI

B1: CD26/dipeptidylpeptidase IV (DPP-IV), endogenous enzyme in heart lysates of wild type C57BL/6 mice (protein)
chain: MKTPWKVLLGLLGVAALVTIITVPIVLLSKDEAAADSRRTYSLADYLKSTFRVKSYSLWWVSDFEYLYKQENNILLLNAEHGNSSIFLENSTFESFGYHSVSPDRLFVLLEYNYVKQWRHSYTASYNIYDVNKRQLITEEKIPNNTQWITWSPEGHKLAYVWKNDIYVKVEPHLPSHRITSTGEENVIYNGITDWVYEEEVFGAYSALWWSPNNTFLAYAQFNDTGVPLIEYSFYSDESLQYPKTVWIPYPKAGAVNPTVKFFIVNIDSLSSSSSAAPIQIPAPASVARGDHYLCDVVWATEERISLQWLRRIQNYSVMAICDYDKINLTWNCPSEQQHVEMSTTGWVGRFRPAEPHFTSDGSSFYKIISDKDGYKHICHFPKDKKDCTFITKGAWEVISIEALTSDYLYYISNQYKEMPGGRNLYKIQLTDHTNVKCLSCDLNPERCQYYAVSFSKEAKYYQLGCWGPGLPLYTLHRSTDHKELRVLEDNSALDRMLQDVQMPSKKLDFIVLNETRFWYQMILPPHFDKSKKYPLLLDVYAGPCSQKADASFRLNWATYLASTENIIVASFDGRGSGYQGDKIMHAINRRLGTLEVEDQIEAARQFVKMGFVDSKRVAIWGWSYGGYVTSMVLGSGSGVFKCGIAVAPVSRWEYYDSVYTERYMGLPIPEDNLDHYRNSTVMSRAEHFKQVEYLLIHGTADDNVHFQQSAQISKALVDAGVDFQAMWYTDEDHGIASSTAHQHIYSHMSHFLQQCFSLH
[1]
  mass spectrometry of recombinant SDF-1 incubated with heart lysates (cleavage product peak): lysates derived from wt animals also showed high abundance of a second peak at 7.748 kDa corresponding to N-terminal cleavage of SDF-1α by DPP-IV
Diprotin A (Ile-Pro-Ile)
  proteolytic DPP-IV activity (H-Gly-Pro-AMC) in myocardium and serum 2 days after MI: Combined application of G-CSF and Diprotin A in wt mice ("G-CSF-DipA mice") lead to a decreased DPP-IV activity after MI only in the myocardium but not in the serum
